In patent US7338932:

Experiments:
[1] = molecular target: MUC2 acceptor peptide (…) (human); experiment: cell-based or functional assay
[2] = molecular target: EA2 acceptor peptide (…) (rat); experiment: cell-based or functional assay
[3] = tested on: EA2 acceptor peptide (PTTDSTTPAPTTK)
[4] = tested on: MUC7 acceptor peptide (Ac-CPPTPSATTPAPPSSSAPPETTAA)

purified human recombinant GalNAc-T2 (enzyme source of Examples 1-6), sequence (chain, as listed by the source): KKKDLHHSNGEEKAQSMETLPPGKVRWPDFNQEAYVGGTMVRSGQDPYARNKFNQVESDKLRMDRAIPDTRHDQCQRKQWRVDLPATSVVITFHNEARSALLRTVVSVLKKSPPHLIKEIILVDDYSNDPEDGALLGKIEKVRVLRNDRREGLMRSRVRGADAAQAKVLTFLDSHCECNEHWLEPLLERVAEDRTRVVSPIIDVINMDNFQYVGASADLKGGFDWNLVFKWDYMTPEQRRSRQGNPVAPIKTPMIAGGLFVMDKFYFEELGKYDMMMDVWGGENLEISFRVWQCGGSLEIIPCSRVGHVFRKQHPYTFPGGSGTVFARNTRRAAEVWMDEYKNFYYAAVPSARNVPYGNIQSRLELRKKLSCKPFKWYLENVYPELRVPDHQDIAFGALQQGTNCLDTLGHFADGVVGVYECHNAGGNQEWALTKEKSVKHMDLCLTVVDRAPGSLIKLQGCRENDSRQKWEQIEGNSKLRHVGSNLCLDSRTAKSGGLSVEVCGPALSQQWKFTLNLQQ
MUC2 acceptor peptide (…) (human), sequence (peptide, as listed by the source): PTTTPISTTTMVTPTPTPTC

purified human recombinant GalNAc-T2 (enzyme source of Examples 1-6) (from UniProt Q10471 52-571)
galactosyltransferase activity with UDP-Gal donor substrate, no inhibitor [1]: 90 nmol/min/mL

human recombinant GalNAc-T3 (enzyme source of Example 6) (from UniProt Q14435 52-633)
galactosyltransferase activity with UDP-Gal donor substrate, no inhibitor [2]: 6.3 nmol/min/mL

purified human recombinant GalNAc-T2 (enzyme source of Examples 1-6)
GalNAc-T2 activity with UDP-Gal [3]: EA2, 1.5 nmol/min/ml | GalNAc-T2 activity with UDP-Gal [4]: Muc7, 13 nmol/min/ml
